PMC5365143

Biological target: EGFP-HDQ74 (mutant huntingtin exon 1 with 74 glutamine residues)
Assay: FRET or BRET

B1: AavLEA1-mCherry (natural protein)
chain: MSSQQNQNRQGEQQEQGYMEAAKEKVVNAWESTKETLSSTAQAAAEKTAEFRDSAGETIRDLTGQAQEKGQEFKERAGEKAEETKQRAGEKMDETKQRAGEMRENAGQKMEEYKQQGKGKAEELRDTAAEKLHQAGEKVKGRD
Work on B1 yielded a dFRET of 3%.
